In assay [1] the target is T1, S2 subunit of the SARS-CoV-2 spike protein, WA01/2020 strain (SARS-CoV-2, WA01/2020 strain, UniProt P0DTC2 686-1213). Put plainly: ELISA, antibody at 0.1 ug/mL.
For assay [2], the target named is T2, SARS-CoV-2 nucleocapsid (N) protein (SARS-CoV-2, UniProt P0DTC9 1-419). Kind of assay: ELISA, antibody at 0.1 ug/mL. For orientation: An ELISA detects its analyte on a solid surface through an enzyme-linked reagent.
For assay [3], the target named is SARS-CoV-2 spike protein, WA1/2020, borne on lentiviral pseudovirus (SARS-CoV-2, WA01/2020 strain, UniProt P0DTC2 14-1273). Kind of assay: cell-based or functional assay.
The target in assay [4] is S1 subunit of the SARS-CoV-2 spike protein, WA01/2020 strain (SARS-CoV-2, WA01/2020 strain, UniProt P0DTC2 16-685). Kind of assay: ELISA screening, antibody concentration not given.
The target of assay [5] is T2, SARS-CoV-2 nucleocapsid (N) protein. Put plainly: ELISA screening, antibody concentration not given.
Assay [6] addresses SARS-CoV (2003) spike protein borne on lentiviral pseudovirus (SARS-CoV (2003), UniProt P59594 14-1255). Put plainly: cell-based or functional assay.
Assay [7] concerns the target T1, S2 subunit of the SARS-CoV-2 spike …. Kind of assay: dose-response ELISA; antigen taken from the column 'Structural data'.
For assay [8] the target is unchanged. Kind of assay: ELISA, antibody at 0.1 ug/mL. The source holds these as a separate data set.
Assay [9] has as its target T2, SARS-CoV-2 nucleocapsid (N) protein. Kind of assay: ELISA, antibody at 0.1 ug/mL. This is another data set of the same source.

Where two headings read alike, the source gives them in different places.

B1: antibody 941 (antibody, V domains shown)
VH: QVQLVQSGAEVKKPGSSVKVSCKASGGTFSNSAINWVRQAPGQGLEWMGGIIPLFGAADYAQKFQARVTITADKSTTTSYMELSSLRSEDTAVYYCARDTLEHDDVWGNFRLSLPLSFWGQGTLVTVSS
VL: not shown
B1: the binding result in [1] and in assay [2] was “no binding (tested: 0.1 ug/mL)” throughout. In addition, in assay [3], the “Pseudo Neut, WA1/2020 IC50 (pM)” value worked out at 610 pM.

B2: antibody 2075 (antibody, V domains shown)
VH: QVQLVQSGAEVKKPGSSVKVSCTASGGTFSIYAFSWVRQAPGQGLEWMGGIIPISGTAGYAQKFQGRVTITADESTSTAYMELSSLRSEDTAIYYCARKYRYCSGSRCYTYFDYWGQGTLVTVSS
VL: DIQMTQSPSSLSASVGDRVTITCRASQSISSFLNWYQQKPGKAPKLLIYAASSLQSGVPSRFSGSGSGTDFTLTISSLQPEDSATYYCQQSYSTITFGQGTRLEIK
Regarding B2, the binding result in assay [1] and in [2] was “no binding (tested: 0.1 ug/mL)” throughout. For the same molecule, the “Pseudo Neut, WA1/2020 IC50 (pM)” value in [3] turned out to be 783 pM.

B3: antibody 3995 (antibody, V domains shown)
VH: EVQLVQSGAEVKKPGSSVKVSCKASGGTFSMHTIRWVRQAPGQGLEWMGRIIPMLGIVNYAQKFQGRVTISADKSTSTAYMELSSLTSEDTAMYYCAKGSHDVFDIWGQGTMVTVSS
VL: not shown
Turning to B3, the binding result in assay [1] and in [2] was “no binding (tested: 0.1 ug/mL)” in each case. For the same molecule, the “Pseudo Neut, WA1/2020 IC50 (pM)” value in assay [3] stood at 3120 pM.

B4: antibody 1963 (antibody, V domains shown)
VH: QVQLVQSGAEVKKPGASVKVSCKASGYTFTSNYIHWLRQAPGQGLEWMGIIKPSGTSTISAQKFRGRVAMTRDTSTSTVYMELSSLRFEDTAIYYCARDAKRALETWGQGTMVTVSS
VL: QSVLTQPPSVSAAPGQKVTISCSGSSSNIGNNYVSWYQQLPGTAPKLLIYDNNKRPSGIPDRFSGSRSGTSATLGITGLQTGDEADYYCGTWDSSLSAWVFGGGTKLTVL
As usually defined, the EC50 is the concentration giving half of the maximal effect. The low end stands for a more potent agent, the high end for a less potent agent. Consider B4, for which the binding result in [4] and in assay [5] was “no binding (tested: not printed)” each time. In addition, in assay [6], the “Pseudo Neut, SARS-CoV 2003 IC50” value was 69 nM. The molecule also came in with an EC50 in assay [7] of 0.041 nM.

B5: antibody 2794 (antibody, V domains shown)
VH: QVQLVQSGAEVKKPGSSLKVSCKASGGTFNNFAISWVRQAPGQGPEWMGRINPILSAAKYAQKFQGRLTITADKSTTTAYMELSSLRSEDTAVYYCAPTGTGESWWFDPWGQGTLVTVSS
VL: QSVLTQPPSASGTPGQRVTISCSGSSSNIGTNYVYWYQQLPGTAPKVLIYGNNQRPSGVPDRFSGSKSGSSASLAISGLRSEDEADYYCAAWDDSLSGPVFGGGTKLTVL
In the case of B5, the binding result in assay [1] and in assay [2] was “no binding (tested: 0.1 ug/mL)” throughout. Further, in assay [3], the “Pseudo Neut, WA1/2020 IC50 (pM)” value was 232 pM.

B6: antibody 937 (antibody, V domains shown)
VH: EVQLVESGGGLVQPGRSLRLSCAASGFTFDDYAMHWVRQAPGKGLEWVSGISWNSGSIGYADSVKGRFTISRDNAKNSLYLQMNSLKPEDTALYYCAKSTTSCYNGSQCPTKRPKPLESWGQGTLVIVSA
VL: DIQMTQSPSTLSAFVGDRVTITCRASQSINNWLAWYQQKPGEVPKLLIYKASSLENGVPSRFSGSGFGTEFTLTISSLQPDDFAIYYCQQYYSHSHTFGQGTKLEIK
For the molecule B6, the binding result in assay [8] and in assay [9] was “no binding (tested: 0.1 ug/mL)” each time.

B7: antibody 1856 (antibody, V domains shown)
VH: EVRLVESGGGLVKPGGSLRLSCAASGFSFSLYTMNWVRQAPGKGLEWVSYISSSSSYRYYADSVKGRFSVSRDNAKNTLYLEMNGLRAEDTAVYYCARDGYCPRGVCTYYGMDVWGQGTTVTVSA
VL: EIVMTQSPATLSVSPGERATLSCRASQTIGIRLAWYQQKPGQAPRLLIYDATIRATGIPARFSGSGSGTDFTLTISGLQSEDFAVYYCQRYNNWPPVYTFGQGTKLEMK
As to B7, the binding result in assay [4] and in assay [5] was “no binding (tested: not printed)” each time. Besides, in [6], the “Pseudo Neut, SARS-CoV 2003 IC50” value was greater than 111 nM.

B8: antibody 1867 (antibody, V domains shown)
VH: EVQLVESGGGLVKPGGSLRLSCAASGFSFSTYTMNWVRQAPGKGLEWVSYISSSSSYRYYADSVRGRFSVSRDNAKNSLYLQMNGLRVEDTAVYYCARDGYCPNGVCTYYGMDVWGQGTTVTVSS
VL: not shown
Regarding B8, the binding result in assay [4] and in assay [5] was “no binding (tested: not printed)” each time. In addition, in assay [6], the “Pseudo Neut, SARS-CoV 2003 IC50” value was 135 nM. The EC50 in assay [7] came to 1.09 nM.

B9: antibody 1888 (antibody, V domains shown)
VH: EVQLVESGGGLVKPGGSLRLSCAASGFTFSSYSMNWVRQAPGKGLEWVSYISSSSSYKYYADSVKGRFSVSRDNAKNSLYLQLNGLRVEDTAVYYCARDGYCPKGVCTYYGMDVWGQGTTVTVSA
VL: EIVMTQSPATLSVSPGERATLSCRASQSVRSRLAWFQQKPGQPPRLLIYDASIRATGIPDRFSGSGSGTEFTLIISGLQSEDFAVYYCQQYDNWPPAYTFGQGTKLEIK
Take B9: the binding result in assay [4] and in assay [5] was “no binding (tested: not printed)” throughout. The “Pseudo Neut, WA1/2020 IC50 (pM)” value in assay [3] is greater than 111 pM. In addition, the “Pseudo Neut, SARS-CoV 2003 IC50” value in [6] was greater than 111 nM.

B10: antibody 3091 (antibody, V domains shown)
VH: QMQLVQSGPEVKKPGTSVKVSCKASGFTFSSSAVQWVRQARGQGLEWIGWIVVGSGNANYAQKLQERVSITRDMSTSTAYMELSSLRPEDTAVYYCAAPHCSRTICHDGFDMWGQGTMVTVSS
VL: EIVLTQSPGTLSLSPGERATLSCRASQSVRSSYLAWYQQKPGQAPRLLMFVASSRATGIPDRFSGSGSGTDFTLTISRLEPEDFAVYYCQQYDTSPWTFGQGTKVEIK
B10: the binding result in assay [1] and in assay [2] was “no binding (tested: 0.1 ug/mL)” each time. In [3], the “Pseudo Neut, WA1/2020 IC50 (pM)” value amounted to 59 pM.

B11: antibody 1969 (antibody, V domains shown)
VH: QVQLVQSGAEVKKPGASVKVSCKASGYSFTDYYIHWVRQAPGQGLEWMGIIKPSAGATVYAQKFRGRVSMTSDTSTGTVYMELSGLKSEDTAVYYCARDYNRSFDFWGQGTLVTVSS
VL: QSVLTQPPSVSAAPGQTVTISCAGSTSNIGKNYVSWYQHLPGTAPKLLIYDNIKRPSGIPDRFSGSTSGTSATLGITELQTGDEADYYCGTWDSSLSAYVFGTGTKVTVL
Consider B11, for which the binding result in [4] and in assay [5] was “no binding (tested: not printed)” each time. In [6], the “Pseudo Neut, SARS-CoV 2003 IC50” value was determined as 97 nM. In [7], the midpoint of the response, the EC50, lay at 0.035 nM.

B12: antibody 4042 (antibody, V domains shown)
VH: QITLKESGPTLVKPTQTLTLTCTFSGFSLSSGGVGVGWIRQPPGKALEWLALIYWDDDKRYRPSLKSRLTITRDTSTNQVVLTMTNMDPVDTATYFCARHQIATVFDHWGQGTLVTVSS
VL: QSALTQPASVSGSPGQSITISCTGTSSDVGGYNYVSWYQQHPGKAPKLMIYEVSNRPSGVSSRFSGSKSGNTASLTISGLQAEDEADYYCSSYTRSSPLVAFGGGTKVTVL
Consider B12, for which the binding result in assay [1] and in assay [2] was “no binding (tested: 0.1 ug/mL)” throughout. The “Pseudo Neut, WA1/2020 IC50 (pM)” value in [3] was determined as 209 pM.

B13: antibody 2025 (antibody, V domains shown)
VH: QVQLVQSGAEVKKPGASVKVSCKVSGYTLIELSMHWVRQAPGKGLEWMGGFDPEDVETIYAQKFQGRVTMTEDTSTDTAYMELSSLRSEDTAVYYCATAYAVQWRGMIGYWGQGTLVTVSS
VL: QSALTQPASVSGSPGQSITISCTGTSSDVGSYNLVSWYQQHPGKAPKLMIYEVSKRPSGVSNRFSGSKSGNTASLTISGLQAEDEADYYCSSYAGSSTFSYVFGTGTKVTVL
Regarding B13, the binding result in assay [8] and in assay [9] was “no binding (tested: 0.1 ug/mL)” each time.

B14: antibody 2564 (antibody, V domains shown)
VH: QVQLVQSGAEVKKPGSSVRVSCKASGGTFISYTFNWVRQAPGQGLEWMGRIIPIFGIVNYAQKFQGRVTIAADKSTSTAYMELSSLRSEDTAMYYCATATVDYDSGEEQSSFDPWGQGTLVTVSS
VL: EIVLTQSPGTLSLSPGERATLSCRASQSVSSSYLAWYQQKAGQTPRLLIYAASSRATGVPDRFSGSGSGTDFTLTISRLEAEDFAVYYCQQSWTFGQGTKVEIK
Turning to B14, the binding result in [1] and in assay [2] was “no binding (tested: 0.1 ug/mL)” throughout. In addition, the “Pseudo Neut, WA1/2020 IC50 (pM)” value in [3] came to 160 pM.
